According to patent US7534862:

Experiments:
[1] = target: hyper-IL-6 (H-IL-6), a fusion protein comprising IL-6+sIL-6R (UniProt P08887); experiment: cell-based or functional assay
[2] = target: IL-6/sIL-6R complex (100 ng/ml IL-6 + 50 ng/ml sIL-6R) (UniProt P05231); experiment: cell-based or functional assay
IL-6/sIL-6R complex (100 ng/ml IL-6 + 50 ng/ml sIL-6R), sequence (P05231 30-212 limits assumed, chain 1 of 2): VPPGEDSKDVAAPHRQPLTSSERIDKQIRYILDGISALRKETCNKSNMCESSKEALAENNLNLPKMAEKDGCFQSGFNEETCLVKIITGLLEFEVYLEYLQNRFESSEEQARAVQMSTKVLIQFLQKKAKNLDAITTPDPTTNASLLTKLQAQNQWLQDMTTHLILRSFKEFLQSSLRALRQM
IL-6/sIL-6R complex (100 ng/ml IL-6 + 50 ng/ml sIL-6R), sequence (P08887 20-358 limits assumed, chain 2 of 2, further chain): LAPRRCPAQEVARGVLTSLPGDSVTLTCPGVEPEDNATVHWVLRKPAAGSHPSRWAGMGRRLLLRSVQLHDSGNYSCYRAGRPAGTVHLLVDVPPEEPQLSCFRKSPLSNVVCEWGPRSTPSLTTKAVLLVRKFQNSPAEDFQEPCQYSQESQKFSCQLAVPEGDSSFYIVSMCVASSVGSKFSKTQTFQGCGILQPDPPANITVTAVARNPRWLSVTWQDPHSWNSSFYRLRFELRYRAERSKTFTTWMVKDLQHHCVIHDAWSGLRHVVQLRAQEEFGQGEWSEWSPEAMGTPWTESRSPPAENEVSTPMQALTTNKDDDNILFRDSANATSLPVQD

hyper-IL-6 (H-IL-6), a fusion protein comprising IL-6+sIL-6R, sequence (P08887 20-323 limits assumed, chain 1 of 2): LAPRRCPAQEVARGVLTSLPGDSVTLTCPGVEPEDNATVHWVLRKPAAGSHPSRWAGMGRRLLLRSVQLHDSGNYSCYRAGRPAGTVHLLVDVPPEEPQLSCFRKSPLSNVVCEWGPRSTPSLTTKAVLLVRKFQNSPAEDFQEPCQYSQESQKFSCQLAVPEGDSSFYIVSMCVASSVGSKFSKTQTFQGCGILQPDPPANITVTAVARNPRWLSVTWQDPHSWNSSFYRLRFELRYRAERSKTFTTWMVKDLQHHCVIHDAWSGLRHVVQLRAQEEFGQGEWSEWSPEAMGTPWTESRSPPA
hyper-IL-6 (H-IL-6), a fusion protein comprising IL-6+sIL-6R, sequence (P05231 30-212 limits assumed, chain 2 of 2, further chain): as the sequence (P05231 30-212 limits assumed, chain 1 of 2) above
sgp130TagPEG (PEGylated sgp130Tag / sgp130(D1-D3)-His, forked PEG), sequence (P40189 other isoform, or with tags, fused parts or gaps): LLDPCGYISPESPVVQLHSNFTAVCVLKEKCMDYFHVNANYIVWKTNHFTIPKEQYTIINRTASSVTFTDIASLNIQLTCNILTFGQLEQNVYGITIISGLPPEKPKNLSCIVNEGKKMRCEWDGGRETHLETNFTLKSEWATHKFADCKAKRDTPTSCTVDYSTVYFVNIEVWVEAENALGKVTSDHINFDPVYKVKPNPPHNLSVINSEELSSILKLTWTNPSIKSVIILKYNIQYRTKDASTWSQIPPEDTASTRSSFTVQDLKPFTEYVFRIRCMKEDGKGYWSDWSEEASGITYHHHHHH
Human sgp130Fc, sequence (P40189 23-619 limits assumed): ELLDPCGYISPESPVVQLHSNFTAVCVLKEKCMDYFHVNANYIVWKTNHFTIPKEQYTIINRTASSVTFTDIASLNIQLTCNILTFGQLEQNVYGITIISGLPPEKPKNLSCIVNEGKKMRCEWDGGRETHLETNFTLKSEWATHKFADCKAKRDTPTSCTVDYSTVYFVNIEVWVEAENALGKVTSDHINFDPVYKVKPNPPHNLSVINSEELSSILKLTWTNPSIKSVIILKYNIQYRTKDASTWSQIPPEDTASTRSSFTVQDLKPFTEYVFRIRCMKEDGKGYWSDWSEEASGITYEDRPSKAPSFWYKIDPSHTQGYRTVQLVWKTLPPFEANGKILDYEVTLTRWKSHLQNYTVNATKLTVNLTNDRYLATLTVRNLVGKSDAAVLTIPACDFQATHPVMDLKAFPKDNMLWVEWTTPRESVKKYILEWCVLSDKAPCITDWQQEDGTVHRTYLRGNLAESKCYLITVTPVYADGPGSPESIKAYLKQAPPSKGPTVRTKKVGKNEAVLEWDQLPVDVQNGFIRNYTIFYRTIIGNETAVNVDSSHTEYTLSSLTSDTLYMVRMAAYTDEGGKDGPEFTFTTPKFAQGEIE

| STAT3 activity (relative luciferase activity, pSTAT3-TA-Luc reporter in BAF/gp130 cells) at 10 ug/ml inhibitor, 5 ng/ml H-IL-6 (% of activity with H-IL-6 alone) [1] | factor of improvement over sgp130Fc in inhibition of BAF/gp130 proliferation (fold vs sgp130Fc) [2] | half-maximal [3H]-thymidine incorporation of BAF/gp130 cells (proliferation) [2] [ng/mL] | concentration giving half-maximal activation of STAT3 (H-IL-6-induced, luciferase reporter in BAF/gp130 cells) [1] [µg/mL] | efficiency relative to sgp130Fc in inhibition of H-IL-6-induced STAT3 activation (fold vs sgp130Fc) [1] | factor of improvement over sgp130Fc in inhibition of BAF/gp130 proliferation (fold vs sgp130Fc) [1] | half-maximal [3H]-thymidine incorporation of BAF/gp130 cells (proliferation) [1] [ng/mL] | Substance |
| --- | --- | --- | --- | --- | --- | --- | --- |
| 26 |  |  |  |  |  |  | Human sgp130Fc (from UniProt P40189 23-619) (Fc fusion) |
| 19 | 1.5 to 3 | 1 to 5 | 2.5 | 2 to 3 | 1.5 to 3 | 1 to 5 | sgp130TagPEG (PEGylated sgp130Tag / sgp130(D1-D3)-His, forked PEG) (from UniProt P40189 24-322) (receptor) |
